Test results taken from patent US20100311659A1.

Key:
[1] = system: FVIII-4A2 (quadruple mutant combining the A2 mutations 409, 462, 507, 629)
[2] = system: T1, wild-type FVIII (recombinant human factor VIII with deletion of the B domain)
T1 sequence: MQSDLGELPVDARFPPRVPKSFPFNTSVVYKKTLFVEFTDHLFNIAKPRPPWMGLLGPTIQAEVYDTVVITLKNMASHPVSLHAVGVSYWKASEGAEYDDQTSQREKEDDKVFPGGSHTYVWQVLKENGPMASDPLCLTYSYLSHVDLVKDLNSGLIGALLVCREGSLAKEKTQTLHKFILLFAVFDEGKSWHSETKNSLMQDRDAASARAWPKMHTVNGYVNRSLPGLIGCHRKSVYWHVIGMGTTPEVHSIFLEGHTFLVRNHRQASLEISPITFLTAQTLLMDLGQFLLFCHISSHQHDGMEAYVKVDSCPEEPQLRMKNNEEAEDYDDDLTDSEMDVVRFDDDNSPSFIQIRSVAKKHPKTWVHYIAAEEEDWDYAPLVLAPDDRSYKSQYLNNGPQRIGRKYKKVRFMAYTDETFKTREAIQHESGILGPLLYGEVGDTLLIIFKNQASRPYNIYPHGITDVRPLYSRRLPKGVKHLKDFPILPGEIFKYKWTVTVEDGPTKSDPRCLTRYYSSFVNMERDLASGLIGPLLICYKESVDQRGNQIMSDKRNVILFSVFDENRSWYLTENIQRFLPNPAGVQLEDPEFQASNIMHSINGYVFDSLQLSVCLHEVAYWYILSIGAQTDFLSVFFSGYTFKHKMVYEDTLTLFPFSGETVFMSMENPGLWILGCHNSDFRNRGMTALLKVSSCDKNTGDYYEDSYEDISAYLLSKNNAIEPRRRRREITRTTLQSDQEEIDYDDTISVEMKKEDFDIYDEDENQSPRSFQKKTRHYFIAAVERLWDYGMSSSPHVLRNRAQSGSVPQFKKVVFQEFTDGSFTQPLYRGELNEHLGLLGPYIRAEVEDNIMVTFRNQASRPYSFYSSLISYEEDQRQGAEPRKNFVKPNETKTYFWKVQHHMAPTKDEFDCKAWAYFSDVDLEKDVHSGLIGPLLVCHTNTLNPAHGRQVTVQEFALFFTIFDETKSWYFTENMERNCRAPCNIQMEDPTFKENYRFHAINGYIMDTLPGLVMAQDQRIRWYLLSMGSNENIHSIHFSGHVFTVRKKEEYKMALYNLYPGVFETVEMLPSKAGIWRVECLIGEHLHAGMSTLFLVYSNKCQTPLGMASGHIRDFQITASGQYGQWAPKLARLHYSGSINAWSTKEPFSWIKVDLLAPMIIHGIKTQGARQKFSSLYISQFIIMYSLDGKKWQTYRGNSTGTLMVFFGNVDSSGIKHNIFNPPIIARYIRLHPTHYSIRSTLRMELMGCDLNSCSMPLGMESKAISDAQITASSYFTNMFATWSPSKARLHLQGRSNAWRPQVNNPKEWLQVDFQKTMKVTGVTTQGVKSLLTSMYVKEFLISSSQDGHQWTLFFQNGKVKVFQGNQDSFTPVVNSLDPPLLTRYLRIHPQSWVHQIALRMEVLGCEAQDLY

Thrombin
activation by thrombin (FXa generation over time) [1]: FVIII-4A2 is identically recognized by thrombin as wild-type FVIII with a relative decrease of activity which might be caused by one of the four mutations | activation by thrombin (FXa generation over time) [2]: FVIII-4A2 is identically recognized by thrombin as wild-type FVIII with a relative decrease of activity which might be caused by one of the four mutations
